# Data: article PMC5727057
# Values joined by “and” are separate entries in the source; they are usually repeats but may differ in a detail not shown here. Identical values can stand only once. Like-named read-outs stand apart in the source and are kept apart here.
# Key:
# [1] = molecular target: GmSKRP1 (protein used for isothermal titration calorimetry) (soybean); experiment: ITC; 40 μM GmSKRP1 in the cell titrated with 400 μM PsAvr3c from the syringe; 25 °C; 20 mM HEPES pH 7.5, 200 mM NaCl; one-site binding model; three independent experiments
# [2] = molecular target: GmSKRP1 (protein used for isothermal titration calorimetry) (soybean); experiment: as above; remark: listed apart in the source
substance,measurement,setting,value
PsAvr3c (protein used for isothermal titration calorimetry) (natural protein),Kd,[1],3.35 µM
same,Kd,[2],3.38 µM and 3.52 µM and 3.14 µM
